The values that follow come from patent publication US20190284258A1, “HAEMADIPSA SYLVESTRIS ANTITHROMBOTIC PEPTIDE SYLVESTIN AND USE THEREOF” (priority 2016, published 2019).

The assay deals with kallikrein. As to the kind of experiment: enzyme inhibition kinetics, chromogenic substrate, OD 405 nm.

What is called Ki is the equilibrium dissociation constant of an inhibitor or competing ligand from its target. Read a high Ki as a looser hold on the target. TSEPVCACPKMLFWVCGKDGETYTHPCIAKCHNVEVEHDGKCK (modifications not checked) [Haemadipsa sylvestris antithrombotic peptide Sylvestin] showed a Ki of 17.8 nM.
